For this assay, the target named is syntaxin-1A (endogenous, cultured mouse neurons) (mouse (endogenous in cultured …, UniProt O35526 1-288)). As to the kind of experiment: co-IP.
syntaxin-1A (endogenous, cultured mouse neurons) (mouse, sequence (O35526 whole entry): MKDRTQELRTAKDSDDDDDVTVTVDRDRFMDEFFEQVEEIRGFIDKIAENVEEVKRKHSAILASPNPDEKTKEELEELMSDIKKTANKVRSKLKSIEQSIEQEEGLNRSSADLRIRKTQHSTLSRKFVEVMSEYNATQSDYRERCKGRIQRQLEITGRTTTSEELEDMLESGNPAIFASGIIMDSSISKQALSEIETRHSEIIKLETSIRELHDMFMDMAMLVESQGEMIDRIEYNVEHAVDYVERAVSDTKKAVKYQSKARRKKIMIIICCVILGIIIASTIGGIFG

B1: Syt1 E295A, Y338W (natural protein, rat, UniProt P21707 1-421, looked up)
chain: MVSASHPEALAAPVTTVATLVPHNATEPASPGEGKEDAFSKLKQKFMNELHKIPLPPWALIAIAIVAVLLVVTCCFCVCKKCLFKKKNKKKGKEKGGKNAINMKDVKDLGKTMKDQALKDDDAETGLTDGEEKEEPKEEEKLGKLQYSLDYDFQNNQLLVGIIQAAELPALDMGGTSDPYVKVFLLPDKKKKFETKVHRKTLNPVFNEQFTFKVPYSELGGKTLVMAVYDFDRFSKHDIIGEFKVPMNTVDFGHVTEEWRDLQSAEKEEQEKLGDICFSLRYVPTAGKLTVVILAAKNLKKMDVGGLSDPYVKIHLMQNGKRLKKKKTTIKKNTLNPWYNESFSFEVPFEQIQKVQVVVTVLDYDKIGKNDAIGKVFVGYNSTGAELRHWSDMLANPRRPIAQWHTLQVEEEVDAMLAVKK
Turning to B1, the “reduction of co-immunoprecipitated Syt1 against Syt1 WT” value (shortened to “reduction”) is around 50%.

B2: Syt1 R281A, R398A, R399A (natural protein, rat, UniProt P21707 1-421, looked up)
chain: MVSASHPEALAAPVTTVATLVPHNATEPASPGEGKEDAFSKLKQKFMNELHKIPLPPWALIAIAIVAVLLVVTCCFCVCKKCLFKKKNKKKGKEKGGKNAINMKDVKDLGKTMKDQALKDDDAETGLTDGEEKEEPKEEEKLGKLQYSLDYDFQNNQLLVGIIQAAELPALDMGGTSDPYVKVFLLPDKKKKFETKVHRKTLNPVFNEQFTFKVPYSELGGKTLVMAVYDFDRFSKHDIIGEFKVPMNTVDFGHVTEEWRDLQSAEKEEQEKLGDICFSLAYVPTAGKLTVVILEAKNLKKMDVGGLSDPYVKIHLMQNGKRLKKKKTTIKKNTLNPYYNESFSFEVPFEQIQKVQVVVTVLDYDKIGKNDAIGKVFVGYNSTGAELRHWSDMLANPAAPIAQWHTLQVEEEVDAMLAVKK
As for B2, the “reduction” value is around 50%.

B3: Syt1 R398Q, R399Q (natural protein, rat, UniProt P21707 1-421, looked up)
chain: MVSASHPEALAAPVTTVATLVPHNATEPASPGEGKEDAFSKLKQKFMNELHKIPLPPWALIAIAIVAVLLVVTCCFCVCKKCLFKKKNKKKGKEKGGKNAINMKDVKDLGKTMKDQALKDDDAETGLTDGEEKEEPKEEEKLGKLQYSLDYDFQNNQLLVGIIQAAELPALDMGGTSDPYVKVFLLPDKKKKFETKVHRKTLNPVFNEQFTFKVPYSELGGKTLVMAVYDFDRFSKHDIIGEFKVPMNTVDFGHVTEEWRDLQSAEKEEQEKLGDICFSLRYVPTAGKLTVVILEAKNLKKMDVGGLSDPYVKIHLMQNGKRLKKKKTTIKKNTLNPYYNESFSFEVPFEQIQKVQVVVTVLDYDKIGKNDAIGKVFVGYNSTGAELRHWSDMLANPQQPIAQWHTLQVEEEVDAMLAVKK
B3: the “reduction” value is around 50%.
